Experimental data reported in publication PMC4323994 (Immunology and cell biology, 2014).
Where no end group is shown, it is not given here.

Columns and labels:
[1] = molecular target: HLA-DR molecule, DRB1*1101 (human); assay: ELISA
[2] = molecular target: HLA-DR molecule, DRB1*0401 (human); assay: ELISA

## QATFMVFQALAQYQKDAP (also: amino and carboxyl ends blocked) [C3d_(269–286)]
[1]
  IC50: < 2000 nM

## VPPVVRWLNEQRYYGGGY (also: amino and carboxyl ends blocked) [C3d_(248–265)]
[1]
  IC50: < 2000 nM

## GKQLYNVEATSYALLALLQLKDFD (also: amino and carboxyl ends blocked) [C3d_(223–246)]
[1]
  IC50: < 2000 nM
[2]
  IC50: < 2000 nM
